# Experimental data from IntAct's records for PubMed 31031754.
# B1: Phosphatidylinositol 4,5-bisphosphate 3-kinase catalytic subunit delta isoform (Homo sapiens), O00329 (parent)
# chain: MPPGVDCPMEFWTKEENQSVVVDFLLPTGVYLNFPVSRNANLSTIKQLLWHRAQYEPLFHMLSGPEAYVFTCINQTAEQQELEDEQRRLCDVQPFLPVLRLVAREGDRVKKLINSQISLLIGKGLHEFDSLCDPEVNDFRAKMCQFCEEAAARRQQLGWEAWLQYSFPLQLEPSAQTWGPGTLRLPNRALLVNVKFEGSEESFTFQVSTKDVPLALMACALRKKATVFRQPLVEQPEDYTLQVNGRHEYLYGSYPLCQFQYICSCLHSGLTPHLTMVHSSSILAMRDEQSNPAPQVQKPRAKPPPIPAKKPSSVSLWSLEQPFRIELIQGSKVNADERMKLVVQAGLFHGNEMLCKTVSSSEVSVCSEPVWKQRLEFDINICDLPRMARLCFALYAVIEKAKKARSTKKKSKKADCPIAWANLMLFDYKDQLKTGERCLYMWPSVPDEKGELLNPTGTVRSNPNTDSAAALLICLPEVAPHPVYYPALEKILELGRHSECVHVTEEEQLQLREILERRGSGELYEHEKDLVWKLRHEVQEHFPEALARLLLVTKWNKHEDVAQMLYLLCSWPELPVLSALELLDFSFPDCHVGSFAIKSLRKLTDDELFQYLLQLVQVLKYESYLDCELTKFLLDRALANRKIGHFLFWHLRSEMHVPSVALRFGLILEAYCRGSTHHMKVLMKQGEALSKLKALNDFVKLSSQKTPKPQTKELMHLCMRQEAYLEALSHLQSPLDPSTLLAEVCVEQCTFMDSKMKPLWIMYSNEEAGSGGSVGIIFKNGDDLRQDMLTLQMIQLMDVLWKQEGLDLRMTPYGCLPTGDRTGLIEVVLRSDTIANIQLNKSNMAATAAFNKDALLNWLKSKNPGEALDRAIEEFTLSCAGYCVATYVLGIGDRHSDNIMIRESGQLFHIDFGHFLGNFKTKFGINRERVPFILTYDFVHVIQQGKTNNSEKFERFRGYCERAYTILRRHGLLFLHLFALMRAAGLPELSCSKDIQYLKDSLALGKTEEEALKHFRVKFNEALRESWKTKVNWLAHNVSKDNRQ
# Variants of: B1
# Conditions: with p85a_human PIK3R1, P27986
# Sequence of p85a_human PIK3R1, P27986 (P27986 whole entry): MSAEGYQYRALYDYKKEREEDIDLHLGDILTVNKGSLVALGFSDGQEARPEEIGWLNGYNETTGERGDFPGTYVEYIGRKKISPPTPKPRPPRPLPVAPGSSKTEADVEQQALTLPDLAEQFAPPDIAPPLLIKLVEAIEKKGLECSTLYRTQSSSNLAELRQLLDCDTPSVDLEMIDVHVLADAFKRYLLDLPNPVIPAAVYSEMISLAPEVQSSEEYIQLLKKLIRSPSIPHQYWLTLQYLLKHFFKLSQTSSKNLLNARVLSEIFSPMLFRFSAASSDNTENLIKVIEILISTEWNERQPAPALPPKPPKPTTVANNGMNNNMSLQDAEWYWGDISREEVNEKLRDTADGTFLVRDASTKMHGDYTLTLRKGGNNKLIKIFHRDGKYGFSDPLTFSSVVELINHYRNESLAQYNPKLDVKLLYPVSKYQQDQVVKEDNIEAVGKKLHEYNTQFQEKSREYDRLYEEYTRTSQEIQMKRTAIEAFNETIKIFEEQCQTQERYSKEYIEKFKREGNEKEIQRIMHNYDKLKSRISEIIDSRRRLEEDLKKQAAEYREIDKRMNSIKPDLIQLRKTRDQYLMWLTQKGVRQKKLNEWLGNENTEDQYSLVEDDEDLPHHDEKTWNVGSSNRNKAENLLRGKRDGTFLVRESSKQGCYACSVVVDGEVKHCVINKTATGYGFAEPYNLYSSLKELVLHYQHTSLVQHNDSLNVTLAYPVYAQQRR
row,Variant,effect of a mutation on the interaction
1,Y524S,with no effect
